T1: PR3 peptide 17 (Homo sapiens, UniProt P24158)
T1 construct: By the stated scheme this would be residues 161-180 of mature PR3; source: synthetic peptide (Schäfer-N); not shown: cysteine, N-terminal, kept
T1 chain: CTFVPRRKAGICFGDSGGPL

T2: PR3 peptide 16 (Homo sapiens, UniProt P24158)
T2 construct: By the stated scheme this would be residues 151-170 of mature PR3; source: synthetic peptide (Schäfer-N); not shown: cysteine, N-terminal, kept
T2 chain: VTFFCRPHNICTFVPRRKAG

T3: PR3 peptide 1 (Homo sapiens, UniProt P24158)
T3 construct: By the stated scheme (20-mers, overlap 10, from the mature N-terminus) this would be residues 1-20 of mature PR3; Coupled to CovaLink-NH plates by the extra N-terminal cysteine; source: synthetic peptide (Schäfer-N); not shown: cysteine, N-terminal, kept
T3 chain: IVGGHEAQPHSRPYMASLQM

T4: PR3 peptide 7 (Homo sapiens, UniProt P24158)
T4 construct: By the stated scheme this would be residues 61-80 of mature PR3; source: synthetic peptide (Schäfer-N); not shown: cysteine, N-terminal, kept
T4 chain: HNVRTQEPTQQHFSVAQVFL

T5: PR3 peptide 20 (Homo sapiens, UniProt P24158)
T5 construct: source: synthetic peptide (Schäfer-N); not shown: cysteine, N-terminal, kept
T5 chain: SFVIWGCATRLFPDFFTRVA

T6: PR3 peptide 2 (Homo sapiens, UniProt P24158)
T6 construct: By the stated scheme this would be residues 11-30 of mature PR3; source: synthetic peptide (Schäfer-N); not shown: cysteine, N-terminal, kept
T6 chain: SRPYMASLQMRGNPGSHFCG

T7: PR3 peptide 3 (Homo sapiens, UniProt P24158)
T7 construct: By the stated scheme this would be residues 21-40 of mature PR3; source: synthetic peptide (Schäfer-N); not shown: cysteine, N-terminal, kept
T7 chain: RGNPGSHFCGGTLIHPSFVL


Legend:
[1] = biological target: T8, Proteinase 3 purified in-house from human neutrophil granulocytes (SSI PR3) (human, UniProt P24158, small N-linked glycans on Asn102 and 147; none, one or two alpha-defensins covalently attached to the glycans); assay: SPR; Biacore 1000, CM5 chip, SSI PR3 immobilised by amine coupling (1287 RU); MAb (whole IgG) injected at 0.1 and 0.4 µg/mL, 25 °C, HBS-E pH 7.4 (10 mM HEPES, 3 mM EDTA, 150 mM NaCl); Langmuir or drifting baseline fit; 'pseudo-affinity/avidity' constants (apparent); details: both partners purified
T8 construct: proteinase 3, human, active mature enzyme purified from neutrophil granulocytes; The preparation carries on average 5-6 associated alpha-defensins per PR3 (mostly non-covalent); proteolytically active; also called PR3 (SSI); native PR3 complex

PR3 peptide 17 = biological target: T1, PR3 peptide 17; assay: ELISA; synthetic 20-mer PR3 peptides coupled by an N-terminal cysteine to CovaLink-NH plates; MAb in solution; corrected by non-coated wells; details: both partners purified
[2] = biological target: T8, Proteinase 3 purified in-house from …; assay: ELISA; elution assays with buffers of different pH: pH at which the MAb dissociated from PR3; details: both partners purified
PR3 peptide 16 = biological target: T2, PR3 peptide 16; assay: ELISA; synthetic 20-mer PR3 peptides coupled by an N-terminal cysteine to CovaLink-NH plates; MAb in solution; corrected by non-coated wells; details: both partners purified
PR3 peptide 1 = biological target: T3, PR3 peptide 1; assay: as above; details: both partners purified
PR3 peptide 7 = biological target: T4, PR3 peptide 7; assay: as above; details: both partners purified
PR3 peptide 20 = biological target: T5, PR3 peptide 20; assay: as above; details: both partners purified
PR3 peptide 2 = biological target: T6, PR3 peptide 2; assay: as above; details: both partners purified
PR3 peptide 3 = biological target: T7, PR3 peptide 3; assay: as above; details: both partners purified
human α1-antitrypsin = biological target: T9, human α1-antitrypsin (human, UniProt P01009 25-418); assay: ELISA + other: SDS-PAGE; α1-AT binding of the PR3 preparations, 'Determined by ELISA and/or SDS-PAGE'; details: both partners purified
T9 construct: also called AT; α1-AT; source: bought: Calbiochem, Merck

[3] = biological target: T8, Proteinase 3 purified in-house from …

T9 sequence (P01009 25-418): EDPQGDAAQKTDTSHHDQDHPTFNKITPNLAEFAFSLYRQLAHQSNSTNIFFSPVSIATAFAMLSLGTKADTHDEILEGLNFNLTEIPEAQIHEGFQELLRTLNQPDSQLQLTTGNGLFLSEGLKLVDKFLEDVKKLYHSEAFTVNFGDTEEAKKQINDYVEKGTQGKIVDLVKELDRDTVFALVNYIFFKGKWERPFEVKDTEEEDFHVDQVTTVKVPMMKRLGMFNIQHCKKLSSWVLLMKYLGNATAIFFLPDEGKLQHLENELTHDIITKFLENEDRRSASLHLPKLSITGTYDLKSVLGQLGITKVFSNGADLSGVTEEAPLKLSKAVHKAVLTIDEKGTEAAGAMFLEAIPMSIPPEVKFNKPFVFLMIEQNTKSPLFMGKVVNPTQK

Row | Binder | Ka [1] [M⁻¹] | koff [1] [s⁻¹] | kon [1] [M⁻¹ s⁻¹] | binding result (PR3 peptide 17) | Elution pH (High) [2] [pH] | Elution pH (Low) [2] [pH] | binding result (human α1-antitrypsin) | also measured
1 | PR3 MAb HYB 172-01 (antibody, V domains shown, Mouse IgG1,κ (clone 6A6); raised against a Triton X-100 extract of purified neutrophil granulocyte alpha-granules; also called clone 6A6; source: mouse hybridoma, produced in-house) VH: EVQLEQSGGDLVKPGGSLKLSCAASGFTFSTYGMSWVRQTPDKRLEWVATFVSGGSYNYYPDSVKGRFAISRDNAKNALYLQMSSLKSEDTAMYYCVRRGASYDALDYWGQGTSVTVSS VL: SIVMTQTPKFLLVSAGDRITITCKASQSVSNDVAWYQQKPGQSPKLLIYYASNRYTGVPDRFTGSGYGTDFTFTISTVQAEDLAVYFCQQDYSSPFTFGSGTKLEIK | 5.23e+13 | 5.21e-08 | 2.72e+06 | binds | 12 | 4 |  | Kd [1]: 0.0191 pM
2 | PR3 MAb HYB 172-05 (antibody, V domains shown, Mouse IgG2a,κ (clone 4A5); also called clone 4A5; source: mouse hybridoma, produced in-house) VH: EVQLQQSGPDLVKPGASVKISCKASGYSFTGYYLHWVKQSHGKSLEWIGRVNPNNDITTYNQKFKDKAILTVDKSSSTAYMEFRSLTSEDSAVYYCAGGGNALDYWGQGTSVTVSS VL: RIVMTQTPKFLLVSAGDRVTITCKASQSVSNNVGWYQQKTGQSPKLLIYYASNRYTGVPDRFTGSGYGTDFTFTISTVQAEDLAVYFCQQDYNSPYTFGGGTKLEIK | 1.81e+11 | 6.84e-05 | 1.24e+07 | binds | 12 | 2 |  | 
3 | PR3 MAb HYB 172-04 (antibody, V domains shown, Mouse IgG2a,κ (clone 4A3); also called clone 4A3; source: mouse hybridoma, produced in-house) VH: EVKLEQSGPDLVKPGASVKISCKASGYSFTGYYLHWVKQSHGKSLEWIGRVNPNNDITTYNQKFKDKAILTVDKSSSTAYMEFRSLTSEDSAVYYCAGGGNALDYWGQGTSVTVSS VL: EIVLTQSPAIMSASLGEEITLTCSASSSVSYMHWYQQKSGTSPKLLIYSTSNLASGVPSRFSGSGSGTFYSLTISSVEAEDAADYYCHQWSSYGTFGGGTKLEIK | 1.8e+10 | 0.000571 | 1.03e+07 | binds | 12 | 2 |  | Kd [1]: 55.5 pM; binding result (PR3 peptide 16): binds; binding result (PR3 peptide 1): binds; binding result (PR3 peptide 7): binds; binding result (PR3 peptide 20): binds; binding result (PR3 peptide 2): binds; binding result (PR3 peptide 3): binds
4 | 172-03 (antibody, V domains shown) VH: QVQLQQAGAELVKPGASVKLSCKASGYTFTNYWMHWVKQRPGQGLEWIGEINPTNGGINYNEEFIKKATLTADKSSNTAYMQLSGLTSEDSAVYFCLIEIMTGEGYWGQGTSLTVSS VL: DILMTQSPSSLTVSAGEKVTMSCKSSQNLLVSGNQNNYLAWHQQKPGRSPKMLIIWASTRVSGVPDRFIGSGSGTDFTLTINSVQAEDLAVYYCQQSFSAPLTFGAGTKLELK |  |  |  |  |  |  |  | binding result [3]: binds

More lines, main results first:

Row | Ka [1] [M⁻¹] | koff [1] [s⁻¹] | kon [1] [M⁻¹ s⁻¹] | binding result (PR3 peptide 17) | Elution pH (High) [2] [pH] | Elution pH (Low) [2] [pH] | binding result (human α1-antitrypsin) | Binder | also measured
5 |  |  |  |  |  |  | binds | Proteinase 3 purified in-house from human neutrophil granulocytes (SSI PR3) (enzyme, UniProt P24158 28-248, looked up, small N-linked glycans on Asn102 and 147; none, one or two alpha-defensins covalently attached to the glycans, proteinase 3, human, active mature enzyme purified from neutrophil granulocytes; The preparation carries on average 5-6 associated alpha-defensins per PR3 (mostly non-covalent); proteolytically active; also called PR3 (SSI); native PR3 complex) IVGGHEAQPHSRPYMASLQMRGNPGSHFCGGTLIHPSFVLTAAHCLRDIPQRLVNVVLGAHNVRTQEPTQQHFSVAQVFLNNYDAENKLNDVLLIQLSSPANLSASVATVQLPQQDQPVPHGTQCLAMGWGRVGAHDPPAQVLQELNVTVVTFFCRPHNICTFVPRRKAGICFGDSGGPLICDGIIQGIDSFVIWGCATRLFPDFFTRVALYVDWIRSTLR | 
6 |  |  |  |  |  |  | binds | Proteinase 3 from Wieslab/Eurodiagnostica (Wieslab PR3) (enzyme, human, UniProt P24158 28-248, looked up, small N-linked glycans on Asn102 and 147; none, one or two alpha-defensins covalently attached to the glycans, proteinase 3, human, commercial preparation; The preparation carries on average 5-6 associated alpha-defensins per PR3; proteolytically active; also called PR3 (Wieslab); source: bought: Wieslab/Eurodiagnostica) IVGGHEAQPHSRPYMASLQMRGNPGSHFCGGTLIHPSFVLTAAHCLRDIPQRLVNVVLGAHNVRTQEPTQQHFSVAQVFLNNYDAENKLNDVLLIQLSSPANLSASVATVQLPQQDQPVPHGTQCLAMGWGRVGAHDPPAQVLQELNVTVVTFFCRPHNICTFVPRRKAGICFGDSGGPLICDGIIQGIDSFVIWGCATRLFPDFFTRVALYVDWIRSTLR | 
7 |  |  |  |  |  |  | binds | Proteinase 3 from Arotec (Arotec PR3) (enzyme, human, UniProt P24158 28-248, looked up, small N-linked glycans on Asn102 and 147; none, one or two alpha-defensins covalently attached to the glycans, proteinase 3, human, commercial preparation; On average 1-2 associated defensins per PR3; source: bought: Arotec) IVGGHEAQPHSRPYMASLQMRGNPGSHFCGGTLIHPSFVLTAAHCLRDIPQRLVNVVLGAHNVRTQEPTQQHFSVAQVFLNNYDAENKLNDVLLIQLSSPANLSASVATVQLPQQDQPVPHGTQCLAMGWGRVGAHDPPAQVLQELNVTVVTFFCRPHNICTFVPRRKAGICFGDSGGPLICDGIIQGIDSFVIWGCATRLFPDFFTRVALYVDWIRSTLR | 
